The Human Domainome abundance scans (Beltran et al. 2025)
± gives the uncertainty stated by the source.

B1: Syntaxin-binding protein 4, residues 493 to 538; numbered along this chain, Q6ZWJ1 (parent)
chain: LDMDCLPYGWEEAYTADGIKYFINHVTQTTSWIHPVMSVLNLSRSE

Variants of: B1
Assay: abundance fitness (aPCA) (normalised: wild type 0, dead -1); higher = more abundant; growth selection in yeast, the domain comes from the species named
Conditions: Homo sapiens

Going from F22Q to F22M, the abundance fitness rises from -0.823 ± 0.16 to -0.44 ± 0.14.

F22P and F22I are within error of each other in abundance fitness: -0.895 ± 0.15 for the first, -0.728 ± 0.16 for the second.

F22T and F22K are within error of each other in abundance fitness: -0.458 ± 0.1 for the first, -0.637 ± 0.14 for the second.

F22R and F22V are within error of each other in abundance fitness: -0.872 ± 0.092 for the first, -0.904 ± 0.099 for the second.

F22C and F22E are within error of each other in abundance fitness: -0.659 ± 0.12 for the first, -0.789 ± 0.14 for the second.

F22A and F22N are within error of each other in abundance fitness: -0.956 ± 0.11 for the first, -0.787 ± 0.19 for the second.

F22L and F22D are within error of each other in abundance fitness: -0.854 ± 0.094 for the first, -0.794 ± 0.22 for the second.

F22G and F22S are within error of each other in abundance fitness: -0.782 ± 0.09 for the first, -0.832 ± 0.11 for the second.

A16P and A16H are within error of each other in abundance fitness: -0.349 ± 0.096 for the first, -0.342 ± 0.091 for the second.

Compared with A16N, A16Y is lower in abundance fitness: -0.283 ± 0.088 for the first, -0.606 ± 0.1 for the second.

First: A16S
Second: A16I
The abundance fitness of the first is higher: -0.011 ± 0.076 for the first, -0.716 ± 0.09 for the second.

A16V and A16C are within error of each other in abundance fitness: -0.57 ± 0.095 for the first, -0.555 ± 0.096 for the second.

Going from A16K to A16Q, the abundance fitness falls from 0.211 ± 0.098 to -0.182 ± 0.12.

A16G and A16T are within error of each other in abundance fitness: -0.445 ± 0.095 for the first, -0.408 ± 0.088 for the second.

Going from A16E to A16L, the abundance fitness falls from -0.118 ± 0.15 to -0.649 ± 0.09.

First: A16M
Second: A16F
The abundance fitness of the first is higher: -0.5 ± 0.12 for the first, -0.781 ± 0.1 for the second.

Compared with A16W, A16D is higher in abundance fitness: -0.901 ± 0.17 for the first, -0.029 ± 0.1 for the second.

A16R and I23H are within error of each other in abundance fitness: -0.66 ± 0.09 for the first, -0.833 ± 0.42 for the second.

I23E and I23N are within error of each other in abundance fitness: -1.08 ± 0.18 for the first, -0.708 ± 0.3 for the second.

I23F and I23Q are within error of each other in abundance fitness: -0.715 ± 0.19 for the first, -0.829 ± 0.18 for the second.

First: I23R
Second: I23T
The abundance fitness of the first is higher: -0.241 ± 0.081 for the first, -0.786 ± 0.16 for the second.

I23D and I23G are within error of each other in abundance fitness: -0.731 ± 0.28 for the first, -0.889 ± 0.092 for the second.

I23S and I23K are within error of each other in abundance fitness: -0.49 ± 0.1 for the first, -0.282 ± 0.14 for the second.

Compared with I23C, I23P is higher in abundance fitness: -0.892 ± 0.15 for the first, -0.4 ± 0.11 for the second.

Compared with I23Y, I23A is lower in abundance fitness: -0.209 ± 0.16 for the first, -0.781 ± 0.12 for the second.

I23M and I23L are within error of each other in abundance fitness: -0.733 ± 0.18 for the first, -0.57 ± 0.099 for the second.

First: I23V
Second: I23W
The abundance fitness of the first is higher: 0.023 ± 0.098 for the first, -0.811 ± 0.12 for the second.

I33A and I33L are within error of each other in abundance fitness: -0.248 ± 0.1 for the first, -0.245 ± 0.089 for the second.

I33F and I33P are within error of each other in abundance fitness: -0.549 ± 0.22 for the first, -0.897 ± 0.15 for the second.

Going from I33K to I33Q, the abundance fitness rises from -0.276 ± 0.13 to 0.064 ± 0.14.

First: I33D
Second: I33H
The abundance fitness of the first is higher: 0.272 ± 0.15 for the first, -0.084 ± 0.14 for the second.

Compared with I33S, I33N is lower in abundance fitness: 0.1 ± 0.1 for the first, -0.243 ± 0.19 for the second.

I33M and I33G are within error of each other in abundance fitness: -0.091 ± 0.15 for the first, -0.199 ± 0.088 for the second.

First: I33E
Second: I33C
The abundance fitness of the first is higher: 0.511 ± 0.12 for the first, 0.031 ± 0.12 for the second.

Compared with I33R, T15K is lower in abundance fitness: -0.481 ± 0.094 for the first, -0.938 ± 0.13 for the second.

Compared with T15P, T15H is lower in abundance fitness: -0.531 ± 0.093 for the first, -0.881 ± 0.16 for the second.

First: T15G
Second: T15E
The abundance fitness of the first is higher: -0.561 ± 0.082 for the first, -0.859 ± 0.16 for the second.

T15R and T15D are within error of each other in abundance fitness: -0.698 ± 0.077 for the first, -0.509 ± 0.13 for the second.

T15A and T15W are within error of each other in abundance fitness: -0.801 ± 0.1 for the first, -0.814 ± 0.096 for the second.

T15Y and T15V are within error of each other in abundance fitness: -0.65 ± 0.13 for the first, -0.862 ± 0.094 for the second.

T15F and T15Q are within error of each other in abundance fitness: -0.883 ± 0.14 for the first, -0.706 ± 0.1 for the second.

T15S and T15I are within error of each other in abundance fitness: -0.672 ± 0.085 for the first, -0.772 ± 0.1 for the second.

T15N and T15C are within error of each other in abundance fitness: -0.806 ± 0.14 for the first, -1 ± 0.14 for the second.

S31H and S31P are within error of each other in abundance fitness: -0.94 ± 0.18 for the first, -0.788 ± 0.13 for the second.

S31F and S31L are within error of each other in abundance fitness: -0.734 ± 0.12 for the first, -0.788 ± 0.11 for the second.

S31V and S31K are within error of each other in abundance fitness: -0.373 ± 0.097 for the first, -0.471 ± 0.12 for the second.

S31C and S31Y are within error of each other in abundance fitness: -0.698 ± 0.15 for the first, -0.879 ± 0.18 for the second.

Going from S31R to S31T, the abundance fitness rises from -0.818 ± 0.1 to 0.199 ± 0.09.

S31I and S31W are within error of each other in abundance fitness: -0.633 ± 0.16 for the first, -0.922 ± 0.14 for the second.

S31A and S31M are within error of each other in abundance fitness: -0.799 ± 0.12 for the first, -0.989 ± 0.14 for the second.

S31E and S31D are within error of each other in abundance fitness: -0.724 ± 0.16 for the first, -0.89 ± 0.19 for the second.

Compared with S31G, S31N is lower in abundance fitness: -0.454 ± 0.1 for the first, -0.953 ± 0.19 for the second.

First: T27H
Second: T27V
The abundance fitness of the first is higher: 0.176 ± 0.16 for the first, -0.872 ± 0.1 for the second.

Going from T27G to T27L, the abundance fitness rises from -0.248 ± 0.079 to 0.644 ± 0.091.

Going from T27A to T27Y, the abundance fitness rises from -0.513 ± 0.096 to 0.394 ± 0.15.

T27F and T27D are within error of each other in abundance fitness: 0.071 ± 0.25 for the first, -0.127 ± 0.16 for the second.

First: T27W
Second: T27I
The abundance fitness of the first is higher: -0.179 ± 0.1 for the first, -0.814 ± 0.25 for the second.

T27N and T27E are within error of each other in abundance fitness: -0.407 ± 0.2 for the first, -0.672 ± 0.13 for the second.

First: T27P
Second: T27R
The abundance fitness of the first is lower: -0.772 ± 0.14 for the first, -0.234 ± 0.081 for the second.

Going from T27Q to T27M, the abundance fitness rises from -0.344 ± 0.14 to 0.168 ± 0.1.

First: T27K
Second: T27S
The abundance fitness of the first is higher: -0.045 ± 0.13 for the first, -0.348 ± 0.1 for the second.

Going from I19S to I19Y, the abundance fitness falls from 0.634 ± 0.083 to -0.034 ± 0.16.

Compared with I19M, I19P is lower in abundance fitness: 0.313 ± 0.091 for the first, -0.761 ± 0.14 for the second.

Going from I19V to I19H, the abundance fitness rises from 0.054 ± 0.076 to 0.293 ± 0.11.

First: I19A
Second: I19G
The abundance fitness of the first is higher: 0.708 ± 0.078 for the first, -0.062 ± 0.073 for the second.

First: I19F
Second: I19Q
The abundance fitness of the first is lower: -0.352 ± 0.12 for the first, 0.7 ± 0.093 for the second.

Going from I19D to I19R, the abundance fitness falls from 0.771 ± 0.1 to 0.428 ± 0.074.

First: I19C
Second: I19N
The abundance fitness of the first is lower: 0.348 ± 0.1 for the first, 0.65 ± 0.12 for the second.

Going from I19W to I19T, the abundance fitness rises from -0.566 ± 0.1 to 0.234 ± 0.094.

Compared with I19K, I19E is higher in abundance fitness: 0.791 ± 0.12 for the first, 1.09 ± 0.082 for the second.

First: H25D
Second: H25N
The abundance fitness of the first is lower: -1.1 ± 0.22 for the first, 0.599 ± 0.34 for the second.

H25M and H25G are within error of each other in abundance fitness: -0.94 ± 0.22 for the first, -0.687 ± 0.091 for the second.

H25F and H25E are within error of each other in abundance fitness: -0.514 ± 0.35 for the first, -0.502 ± 0.13 for the second.

First: H25K
Second: H25P
The abundance fitness of the first is higher: 0.25 ± 0.15 for the first, -0.236 ± 0.19 for the second.

Going from H25T to H25Y, the abundance fitness falls from 0.033 ± 0.18 to -0.941 ± 0.21.

H25C and H25V are within error of each other in abundance fitness: -0.824 ± 0.18 for the first, -0.67 ± 0.11 for the second.

Compared with H25R, H25W is lower in abundance fitness: 0.108 ± 0.085 for the first, -0.916 ± 0.14 for the second.

First: H25L
Second: H25S
The abundance fitness of the first is lower: -0.931 ± 0.15 for the first, -0.006 ± 0.11 for the second.

H25A and H25I are within error of each other in abundance fitness: -0.927 ± 0.12 for the first, -0.754 ± 0.27 for the second.

N24F and N24W are within error of each other in abundance fitness: -0.835 ± 0.21 for the first, -0.609 ± 0.13 for the second.

N24P and N24K are within error of each other in abundance fitness: -0.837 ± 0.17 for the first, -1.12 ± 0.28 for the second.

N24Y and N24L are within error of each other in abundance fitness: -0.638 ± 0.23 for the first, -0.932 ± 0.16 for the second.

N24G and N24D are within error of each other in abundance fitness: -0.72 ± 0.092 for the first, -0.668 ± 0.21 for the second.

For N24E, the abundance fitness was -0.715 ± 0.14.
